Data: patent publication US20220176020A1, “Improved Bone Implant Matrix Comprising Proline-Rich Peptide And Method Of Preparing The Same” (Industrie Biomediche Insubri S.A., priority 2019, published 2022)
No end group written: not given here. *: point of attachment. FITC = O=C1OC2(c3ccc(O)cc3Oc3cc(O)ccc32)c2ccc(NC(=S)*)cc21

What was measured:
MC3T3-E1 cells = assay: Real-time PCR of osteogenic marker mRNA levels (COL1A1, ALP, OC, VEGFA); format: cell-based, murine; details: FIG. 10; for COL1A1 mRNA levels: after 14 days; for OC level: time at which highest/max is reached: measured at 1, 3, 7 and 14 days
Description: The cells assessed was murine pre-osteoblastic cell line (MC3T3-E1) obtained from the German Collection of Micro-organisms and Cell Cultures (DSMC, Braunschweig, Germany). MC3T3-E1 cells were routinely cultured at 37° C. in a humidified atmosphere of 5% CO2, and maintained in α-MEM supplemented with 10% foetal calf serum (FCS) and antibiotics (50 IU penicillin/ml and 50 μg streptomycin/ml). Cells were subcultured 1:4 before reaching confluence using PBS and trypsin/EDTA. All experiments were performed in the same passage of the MC3T3-E1 cells.
Then, cells were maintained static at 37° C. in a humidified atmosphere of 5% CO2 for up to 14 days. The same number of cells were cultured in parallel in plastic in all the experiments.
Total RNA was isolated with Tripure (Roche Diagnostics) and RNA was quantified using a spectrophotometer set at 260 nm. Real-time PCR was performed for two reference genes and several target gene (Table) The same amount of total RNA from each sample (370 ng) was reverse transcribed to cDNA at 37° C. for 60 min in a final volume of 20 μl, using High Capacity RNA to cDNA kit (Applied Biosystems). Each cDNA was diluted 1/7 and these dilutions are used to carry on the quantitative PCR.
Real-time PCR was performed in the Lightcycler 480® (Roche Diagnostics, Germany) using SYBR green detection. For each reaction, 7 μl of Lightcycler-FastStart DNA MasterPLUS SYBR Green I, 0.5 μM of sense and antisense specific primer and 3 μl of the cDNA dilution in a final volume of 10 μl was added. The normal amplification program consisted of a preincubation step for denaturation of the template cDNA (95° C.), followed by 45 cycles consisting of a denaturation step (95° C.), an annealing step (60° C., for all expect for ALP and osterix, which were 65° C. and 68° C. respectively) and an extension step (72° C.). Real-time efficiencies were calculated from the given slopes in the LightCycler 480 software using serial dilutions.
Relative quantification after PCRWas calculated by dividing the concentration of the target gene in each sample by the mean of the concentration of the two reference genes (Housekeeping genes) in the same sample using the advanced relative quantification method provided by the LightCycler 480 analysis software version 1.5 (Roche Diagnostics, Mannheim, Germany).

[1] = Release profile of FITC-labelled PRP from SBP in 10 ml purified water; format: physicochemical; details: for period of highest release rate / release of peptide: 10 ml purified water; for release of peptide: FITC on C- or N-terminal
Description: For 4 days the solution was analysed every 24 h using UV-vis, then 48 h after, and finally […] after. The water was changed every time to better simulate in vivo conditions, maximizing the drive force. Having a FITC+H2O calibration curve, the absorbance could be related to the concentration. Using a known quantity of water, the mass released could be derived from the measured concentration.
For a proper FITC release profile, also samples of bone implant matrix, identified as “SB”, reproduced according to example 3 were studied, since other components of the “SB” is likely to be released, the blank used for the spectroscopy was based on a water+“SB” solution. […] To identify the presence of “PRP” in the aqueous solution, FITC molecules were either attached to the C- or N-terminal of the peptide before loading.
Calibration was used to derive the concentration of FITC released in the water solution at the given time points. With a known quantity of water used at a given time, the mass released can be derived.
Best fit plots where made using the inbuild best-fit function of Graph (Software) assuming both a logarithmic and power function. In general, the logarithmic functions were more accurate (R^2-values closer to 1).

| Substance | COL1A1 mRNA levels (MC3T3-E1 cells) | OC level: time at which highest/max is reached (MC3T3-E1 cells) | period of highest release rate [1] | release of peptide ([1]; after 14 days) [µg] | release rate ([1]; after 14 days, FIG. 2) | initial release ([1]; FIG. 2, comparison P2 vs P5) |
| --- | --- | --- | --- | --- | --- | --- |
| PLV PSS PLV PCC PLV PCC PSP PLPP (PLVPSSPLVPCCPLVPCCPSPPLPP; proline rich peptide) [P5, artificial Proline-Rich Peptide] | drop | fairly stable | highest release rate the two first days | 8.75 to 9.90 | – | – |
| P2N: PRP version P2 (SEQ ID 4) with FITC attached on the N terminal ({FITC}-PLVPSQPLVPSQPLVPSQPQPPLPP) | – | – | – | – | jump in release rate | – |
| PHQ PMQ PQP PVH PMQ PLP PQP PLPP (PHQPMQPQPPVHPMQPLPPQPPLPP; proline rich peptide) [P6, artificial Proline-Rich Peptide] | raised significantly | 7 days | – | – | – | – |
| PLV PSQ PLV PSQ PLV PSQ PQP PLPP (PLVPSQPLVPSQPLVPSQPQPPLPP; proline rich peptide) [P2, artificial Proline-Rich Peptide] | – | – | highest release rate the two first days | 11.75 to 14.01 | – | higher initial release than P5 |
